Where a chain is given by its changes, count along the chain named. Names may count otherwise.

B1: I156E: single-substitution thermolysin variant (SEQ ID NO:3 numbering) (protein, listed as Geobacillus caldoproteolyticus)
chain: ITGTSTVGVGRGVLGDQKNINTTYSTYYYLQDNTRGNGIFTYDAKYRTTLPGSLWADADNQFFASYDAPAVDAHYYAGVTYDYYKNVHNRLSYDGNNAAIRSSVHYSQGYNNAFWNGSQMVYGDGDGQTFIPLSGGIDVVAHELTHAVTDYTAGLEYQNESGAINEAISDIFGTLVEFYANKNPDWEIGEDVYTPGISGDSLRSMSDPAKYGDPDHYSKRYTGTQDNGGVHINSGIINKAAYLISQGGTHYGVSVVGIGRDKLGKIFYRALTQYLTPTSNFSQLRAAAVQSATDLYGSTSQEVASVKQAFDAVGVK
B2: Q128C: single-substitution thermolysin variant (SEQ ID NO:3 numbering) (protein, listed as Geobacillus caldoproteolyticus)
chain: B1 chain with Q128C, E156I
B3: Y151A: single-substitution thermolysin variant (SEQ ID NO:3 numbering) (protein, listed as Geobacillus caldoproteolyticus)
chain: B1 chain with Y151A, E156I
B4: A056C: single-substitution thermolysin variant (SEQ ID NO:3 numbering) (protein, listed as Geobacillus caldoproteolyticus)
chain: B1 chain with A56C, E156I
B5: S065E: single-substitution thermolysin variant (SEQ ID NO:3 numbering) (protein, listed as Geobacillus caldoproteolyticus)
chain: B1 chain with S65E, E156I
B6: S065D: single-substitution thermolysin variant (SEQ ID NO:3 numbering) (protein, listed as Geobacillus caldoproteolyticus)
chain: B1 chain with S65D, E156I
B7: Q128T: single-substitution thermolysin variant (SEQ ID NO:3 numbering) (protein, listed as Geobacillus caldoproteolyticus)
chain: B1 chain with Q128T, E156I
B8: S065V: single-substitution thermolysin variant (SEQ ID NO:3 numbering) (protein, listed as Geobacillus caldoproteolyticus)
chain: B1 chain with S65V, E156I
B9: Q061M: single-substitution thermolysin variant (SEQ ID NO:3 numbering) (protein, listed as Geobacillus caldoproteolyticus)
chain: B1 chain with Q61M, E156I
B10: A058E: single-substitution thermolysin variant (SEQ ID NO:3 numbering) (protein, listed as Geobacillus caldoproteolyticus)
chain: B1 chain with A58E, E156I
B11: A058C: single-substitution thermolysin variant (SEQ ID NO:3 numbering) (protein, listed as Geobacillus caldoproteolyticus)
chain: B1 chain with A58C, E156I
B12: S065W: single-substitution thermolysin variant (SEQ ID NO:3 numbering) (protein, listed as Geobacillus caldoproteolyticus)
chain: B1 chain with S65W, E156I
B13: S065P: single-substitution thermolysin variant (SEQ ID NO:3 numbering) (protein, listed as Geobacillus caldoproteolyticus)
chain: B1 chain with S65P, E156I
B14: A056E: single-substitution thermolysin variant (SEQ ID NO:3 numbering) (protein, listed as Geobacillus caldoproteolyticus)
chain: B1 chain with A56E, E156I
B15: T049S: single-substitution thermolysin variant (SEQ ID NO:3 numbering) (protein, listed as Geobacillus caldoproteolyticus)
chain: B1 chain with T49S, E156I
B16: Q061E: single-substitution thermolysin variant (SEQ ID NO:3 numbering) (protein, listed as Geobacillus caldoproteolyticus)
chain: B1 chain with Q61E, E156I
B17: S065C: single-substitution thermolysin variant (SEQ ID NO:3 numbering) (protein, listed as Geobacillus caldoproteolyticus)
chain: B1 chain with S65C, E156I
B18: N280S: single-substitution thermolysin variant (SEQ ID NO:3 numbering) (protein, listed as Geobacillus caldoproteolyticus)
chain: B1 chain with E156I, N280S
B19: N280I: single-substitution thermolysin variant (SEQ ID NO:3 numbering) (protein, listed as Geobacillus caldoproteolyticus)
chain: B1 chain with E156I, N280I
B20: N280L: single-substitution thermolysin variant (SEQ ID NO:3 numbering) (protein, listed as Geobacillus caldoproteolyticus)
chain: B1 chain with E156I, N280L
B21: T006A: single-substitution thermolysin variant (SEQ ID NO:3 numbering) (protein, listed as Geobacillus caldoproteolyticus)
chain: B1 chain with T6A, E156I
B22: N280M: single-substitution thermolysin variant (SEQ ID NO:3 numbering) (protein, listed as Geobacillus caldoproteolyticus)
chain: B1 chain with E156I, N280M

A short description of one series: Stability assay in 25% TIDE 2X detergent without DTPA (residual Abz-AGLA-Nba protease activity). Format: physicochemical. As to conditions: 180 min at 50°C; variant residual AGLA activity divided by wild-type residual activity. The procedure:
(§1) The stability of thermolysin and variants thereof was measured after incubation under defined conditions in the presence of 25% TIDE® 2× detergent. The initial and residual activity was determined.
(§2) MTPs were obtained from Costar (type 9017) and from Greiner (black plate, type 655076). Test Method Unstressed Conditions:
(§3) First, 20 μl thermolysin containing culture supernatant was diluted with 180 μl MES assay buffer. Then, 20 μl diluted supernatant was diluted further with 180 μl MES assay buffer. Subsequently 10 μl of this dilution was transferred into 190 μl AGLA-substrate solution in a pre-warmed plate (Greiner 655076) at 25° C. Any air bubbles present were blown away and the plate was measured according to the AGLA protease assay protocol described below.
(§4) First, 20 μl of culture supernatant was diluted with 180 μl 27.5% TIDE®+detergent solution and placed in the iEMS shaker. The plate covered with a plate seal was incubated for a total of 60 minutes at 32° C. at 900 rpm. In addition, 20 μl of culture supernatant was diluted with 180 μl 27.5% TIDE®−solution and placed in the iEMS shaker. This plate covered with a plate seal was incubated for a total of 180 minutes at 50° C. at 900 rpm.
(§5) Subsequently after the respective incubations, 20 μl of either of these solutions were diluted with 180 μl MES assay buffer and 10 μl of this dilution were diluted with 190 μl AGLA-substrate solution in a pre-warmed plate (Greiner 655076) at 25° C.
(§6) Fluorescence measurements were taken at excitation of 350 nm and emission of 420 nm. The spectrofluorometer software calculated the reaction rates (=slope) of the increase in fluorescence for each well to a linearly regressed line of (milli-) RFU/min. The ratio of the residual and initial AGLA activity was used to express the 25% TIDE® 2× stability as follows: Percentage of residual activity=[slope of stressed]*100/[slope of unstressed]
(§7) For each sample (thermolysin and variants thereof) the performance index was calculated by dividing the residual activity of the variant by the residual activity of thermolysin. The performance index compared the stability of the variant and the standard thermolysin enzyme (e.g., wild type or parental enzyme), determined under the same conditions.
(§8) In these experiments, the liberation of Abz-AG by protease cleavage of Abz-AGLA-Nba was monitored by fluorescence spectrometry (Ex. 350/Em. 420). The rate of appearance of Abz-AG was a measure of proteolytic activity.
(§9) The Abz-AGLA-Nba assay solution was prepared by adding 1 ml of the Abz-AGLA-Nba stock to 19 ml MES substrate buffer and mixed well for at least 2 minutes. Subsequently the thermolysin or variants thereof containing culture supernatants were diluted with MES assay buffer to a concentration of 1-6 μg protein per ml.
(§10) The assay was performed by adding 10 μl of diluted protease solution to each well, followed by the addition of 190 μl Abz-AGLA-Nba assay solution that was pre-equilibrated for at least 15 minutes at 25° C. The solutions were vigorously mixed, and the liberation of Abz-AG by protease cleavage of Abz-AGLA-Nba was monitored by fluorescence spectrometry at 25° C. in kinetic mode with excitation set at 350 nm and emission set at 420 nm. The rate of appearance of Abz-AG was a measure of proteolytic activity in the samples. The protease activity was expressed as RFU (relative fluorescence units·min^−1).
(§11) As described in Example 1, the stability of thermolysin variants was measured by determining the AGLA activity before and after incubation in the presence of TIDE® 2× heavy duty liquid (HDL) detergent at an elevated temperature. The tables contain the relative stability values compared to wild-type thermolysin, which is the quotient of the variant residual activity divided by the wild-type residual activity. A value greater than one indicates higher stability in the presence of detergent. […]
With B1, the “PI (relative stability), 25% TIDE 2X without DTPA” value came out at 1.09.
As for B2, the “PI (relative stability), 25% TIDE 2X without DTPA” value was 1.05.
Consider B3, for which the “PI (relative stability), 25% TIDE 2X without DTPA” value is 1.24.
Consider B4, for which the “PI (relative stability), 25% TIDE 2X without DTPA” value was 1.19.
Take B5: the “PI (relative stability), 25% TIDE 2X without DTPA” value is reported as 1.34.
Still for that read-out and setting: as for B6, the figure is 1.20; as for B7, 1.15.
Regarding B8, the “PI (relative stability), 25% TIDE 2X without DTPA” value came out at 1.08.
B9: the “PI (relative stability), 25% TIDE 2X without DTPA” value is 1.01.
Consider B10, for which the “PI (relative stability), 25% TIDE 2X without DTPA” value is given as 1.24.
Take B11: the “PI (relative stability), 25% TIDE 2X without DTPA” value is 1.01.
For B12, the “PI (relative stability), 25% TIDE 2X without DTPA” value is recorded as 1.09.
Same read-out and setting: in the case of B13 it was 1.18.
Turning to B14, the “PI (relative stability), 25% TIDE 2X without DTPA” value came out at 1.07.
As for B15, the “PI (relative stability), 25% TIDE 2X without DTPA” value is 1.26.
Consider B16, for which the “PI (relative stability), 25% TIDE 2X without DTPA” value came to 1.05.
For B17, the “PI (relative stability), 25% TIDE 2X without DTPA” value was found to be 1.14.

A short description of another series: Stability assay in 25% TIDE 2X detergent with DTPA (residual Abz-AGLA-Nba protease activity). The conditions noted are these: 60 min at 32°C; variant residual AGLA activity divided by wild-type residual activity. It counts as physicochemical. The procedure:
as §1, §2, §3, §4, §5, §6, §7, §8, §9, §10, §11
On to B1, for which the “PI (relative stability), 25% TIDE 2X with DTPA” value stood at 1.58.
Take B2: the “PI (relative stability), 25% TIDE 2X with DTPA” value was 1.01.
On to B3, for which the “PI (relative stability), 25% TIDE 2X with DTPA” value is reported as 1.15.
In the case of B4, the “PI (relative stability), 25% TIDE 2X with DTPA” value is recorded as 1.01.
B5: the “PI (relative stability), 25% TIDE 2X with DTPA” value was 1.08.
As for B7, the “PI (relative stability), 25% TIDE 2X with DTPA” value was 1.18.
On the same count and under the same terms, as for B18, the figure is 1.19; as for B19, 1.16; as for B8, 1.08.
Same read-out and setting: in the case of B20 it was 1.21; in that of B21, 1.01.
On to B15, for which the “PI (relative stability), 25% TIDE 2X with DTPA” value came to 1.08.
With B17, the “PI (relative stability), 25% TIDE 2X with DTPA” value is on record as 1.05.
Turning to B22, the “PI (relative stability), 25% TIDE 2X with DTPA” value was 1.16.

These data come from patent US9976134B2, “Thermolysin variants” (Danisco US Inc., priority 2007, dated 2018).
